This sample holds only a part of the variants without activity.
B1: TPR 5TU (parent)
chain: GGAUCUUCUCGAUCUAACAAAAAAGACAAAUCUGCCACAAAGCUUGAGAGCAUCUUCGGAUGCAGAGGCGGCAGCCUUCGGUGGCGCGAUAGCGCCAACGUUCUCAACUAUGACACGCAAAACGCGUGCUCCGUUGAAUGGAGUUUAUCAUG

Variants of: B1
Assay: polymerase ribozyme fitness, log enrichment relative to wild type (log ratio); higher = more active; in vitro selection for triplet polymerase activity
Outline: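 Mutant libraries of each subunit of a heterodimeric triplet polymerase ribozyme were built by PCR and transcribed. Each library went through one round of in vitro selection in triplicate: annealing with biotinylated primer, partner subunit and triplets, frozen incubation at −7 °C, gel excision of extended constructs, streptavidin-bead capture and RT-PCR. Input and output libraries were Illumina-sequenced; only genotypes with ≥10 input reads and ≥1 read per output were kept. Fitness is log2(genotype enrichment/wild-type enrichment), using inverse-variance-weighted replicate averages.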
For A113U A120G, the “polymerase ribozyme fitness (log ratio)” value was -1.73.
In the case of C99A U101G, the “polymerase ribozyme fitness (log ratio)” value is reported as -3.16.
For C116U A119U U135C, the “polymerase ribozyme fitness (log ratio)” value was -2.59.
In the case of U101G G136C, the “polymerase ribozyme fitness (log ratio)” value is reported as -2.44.
In the case of U101G G136A, the “polymerase ribozyme fitness (log ratio)” value is reported as 0.652.
With C116U A122U the “polymerase ribozyme fitness (log ratio)” value was -0.326.
For A122U C149U, the “polymerase ribozyme fitness (log ratio)” value was -0.616.
With A120U A137C A138U the “polymerase ribozyme fitness (log ratio)” value was -4.19.
With A120G G141A the “polymerase ribozyme fitness (log ratio)” value was 1.23.
In the case of C123A, the “polymerase ribozyme fitness (log ratio)” value is reported as -0.404.
With C123U the “polymerase ribozyme fitness (log ratio)” value was 0.225.
With C123G the “polymerase ribozyme fitness (log ratio)” value was -0.337.
In the case of C116U U146C, the “polymerase ribozyme fitness (log ratio)” value is reported as -0.11.
For A110C G112A G140C A142U, the “polymerase ribozyme fitness (log ratio)” value was -4.12.
With C103G U144A the “polymerase ribozyme fitness (log ratio)” value was -2.15.
In the case of A115C, the “polymerase ribozyme fitness (log ratio)” value is reported as -0.641.
With A115G the “polymerase ribozyme fitness (log ratio)” value was -1.
With A115U the “polymerase ribozyme fitness (log ratio)” value was -1.48.
For U104C U135G, the “polymerase ribozyme fitness (log ratio)” value was -3.31.
In the case of C114A U139G, the “polymerase ribozyme fitness (log ratio)” value is reported as -2.32.
In the case of A110U U127A, the “polymerase ribozyme fitness (log ratio)” value is reported as -4.06.
For C99G C129A, the “polymerase ribozyme fitness (log ratio)” value was -3.81.
With A122U G141C the “polymerase ribozyme fitness (log ratio)” value was 0.115.
With U109G C116G the “polymerase ribozyme fitness (log ratio)” value was -0.501.
In the case of U109G C116A, the “polymerase ribozyme fitness (log ratio)” value is reported as -2.26.
For A115C U145C, the “polymerase ribozyme fitness (log ratio)” value was -2.43.
With C103A G117U the “polymerase ribozyme fitness (log ratio)” value was -0.489.
With G117U A137G the “polymerase ribozyme fitness (log ratio)” value was -1.34.
With C99A C114U U135G the “polymerase ribozyme fitness (log ratio)” value was -3.68.
With C105G A120U the “polymerase ribozyme fitness (log ratio)” value was -0.931.
For A121G U134G, the “polymerase ribozyme fitness (log ratio)” value was -2.56.
For C116U U148A, the “polymerase ribozyme fitness (log ratio)” value was -3.85.
In the case of C116U C118A U139G, the “polymerase ribozyme fitness (log ratio)” value is reported as 0.554.
With C116U G124A A142G the “polymerase ribozyme fitness (log ratio)” value was -2.45.
With A119U U144A the “polymerase ribozyme fitness (log ratio)” value was -0.171.
In the case of C99G G124A G141U, the “polymerase ribozyme fitness (log ratio)” value is reported as -0.199.
In the case of A110G A122G, the “polymerase ribozyme fitness (log ratio)” value is reported as -2.84.
For G124U A142C, the “polymerase ribozyme fitness (log ratio)” value was -1.75.
For A113G U148A, the “polymerase ribozyme fitness (log ratio)” value was -4.05.
In the case of G100U C131U, the “polymerase ribozyme fitness (log ratio)” value is reported as at most -4.2.
In the case of G124A U148C, the “polymerase ribozyme fitness (log ratio)” value is reported as -0.766.
For G124A U148G, the “polymerase ribozyme fitness (log ratio)” value was -3.69.
For C99G C118U U148A, the “polymerase ribozyme fitness (log ratio)” value was at most -4.2.
For C114U C123U, the “polymerase ribozyme fitness (log ratio)” value was -2.17.
For C116U A119G, the “polymerase ribozyme fitness (log ratio)” value was -0.704.
With C116U A119U the “polymerase ribozyme fitness (log ratio)” value was -0.298.
For U101A U109G C118U C125G A138G G141A, the “polymerase ribozyme fitness (log ratio)” value was at most -4.2.
For G117U G143U, the “polymerase ribozyme fitness (log ratio)” value was -2.57.
For U101G A113U, the “polymerase ribozyme fitness (log ratio)” value was -1.25.
With U104G U109A G133C the “polymerase ribozyme fitness (log ratio)” value was -2.78.
In the case of U102G U104C U148A A150U, the “polymerase ribozyme fitness (log ratio)” value is reported as at most -4.2.
In the case of C99G U144A U148A, the “polymerase ribozyme fitness (log ratio)” value is reported as at most -4.2.
With C103G A119C the “polymerase ribozyme fitness (log ratio)” value was -1.49.
In the case of C125A A147U, the “polymerase ribozyme fitness (log ratio)” value is reported as -0.189.
In the case of C114U A119U, the “polymerase ribozyme fitness (log ratio)” value is reported as -1.73.
In the case of C103G G117U, the “polymerase ribozyme fitness (log ratio)” value is reported as -0.61.
For C99G A137C A142G, the “polymerase ribozyme fitness (log ratio)” value was -3.71.
For C103A A115U, the “polymerase ribozyme fitness (log ratio)” value was -3.09.
With C103A A115C the “polymerase ribozyme fitness (log ratio)” value was -2.54.
With C103U A115G the “polymerase ribozyme fitness (log ratio)” value was -1.14.
With A120C G136U G140C the “polymerase ribozyme fitness (log ratio)” value was -4.19.
With C103G U145G the “polymerase ribozyme fitness (log ratio)” value was -1.87.
With C99U G136A the “polymerase ribozyme fitness (log ratio)” value was 0.0423.
For C99U G136U, the “polymerase ribozyme fitness (log ratio)” value was -2.25.
With C114U C118G the “polymerase ribozyme fitness (log ratio)” value was -2.88.
For G112U G141A U148G, the “polymerase ribozyme fitness (log ratio)” value was at most -4.2.
With C105U A119U G140A U146G the “polymerase ribozyme fitness (log ratio)” value was -3.72.
In the case of C99U A119C C125G U134G, the “polymerase ribozyme fitness (log ratio)” value is reported as -3.27.
With C116U C125U U146C the “polymerase ribozyme fitness (log ratio)” value was -0.74.
For A115C G133U, the “polymerase ribozyme fitness (log ratio)” value was -3.74.
For C118G C129U, the “polymerase ribozyme fitness (log ratio)” value was -1.77.
For C99G U102G U135A, the “polymerase ribozyme fitness (log ratio)” value was at most -4.2.
For C105U A142C, the “polymerase ribozyme fitness (log ratio)” value was -0.229.
With U102A G128U the “polymerase ribozyme fitness (log ratio)” value was -4.1.
For U101G G117A G133U, the “polymerase ribozyme fitness (log ratio)” value was -4.1.
For G100U U139G U146G, the “polymerase ribozyme fitness (log ratio)” value was at most -4.2.
In the case of A115C C123A, the “polymerase ribozyme fitness (log ratio)” value is reported as -1.17.
For G124C A142U, the “polymerase ribozyme fitness (log ratio)” value was -0.985.
For A106G, the “polymerase ribozyme fitness (log ratio)” value was 0.398.
In the case of A106U, the “polymerase ribozyme fitness (log ratio)” value is reported as -0.23.
In the case of A106C, the “polymerase ribozyme fitness (log ratio)” value is reported as -0.467.
With C116U A121U G124U the “polymerase ribozyme fitness (log ratio)” value was -2.02.
With U102G U104C the “polymerase ribozyme fitness (log ratio)” value was at most -4.2.
With A115U G141C the “polymerase ribozyme fitness (log ratio)” value was -3.37.

— the RNAGym collection of RNA variant scans (doi:10.1073/pnas.2313332121)
